Molecular target: soluble His‐tagged human LRP4 (low‐density lipoprotein receptor‐related protein 4) (human) (UniProt O75096)
Test: SPR

UniProt O75096, sequence (O75096 21-1725): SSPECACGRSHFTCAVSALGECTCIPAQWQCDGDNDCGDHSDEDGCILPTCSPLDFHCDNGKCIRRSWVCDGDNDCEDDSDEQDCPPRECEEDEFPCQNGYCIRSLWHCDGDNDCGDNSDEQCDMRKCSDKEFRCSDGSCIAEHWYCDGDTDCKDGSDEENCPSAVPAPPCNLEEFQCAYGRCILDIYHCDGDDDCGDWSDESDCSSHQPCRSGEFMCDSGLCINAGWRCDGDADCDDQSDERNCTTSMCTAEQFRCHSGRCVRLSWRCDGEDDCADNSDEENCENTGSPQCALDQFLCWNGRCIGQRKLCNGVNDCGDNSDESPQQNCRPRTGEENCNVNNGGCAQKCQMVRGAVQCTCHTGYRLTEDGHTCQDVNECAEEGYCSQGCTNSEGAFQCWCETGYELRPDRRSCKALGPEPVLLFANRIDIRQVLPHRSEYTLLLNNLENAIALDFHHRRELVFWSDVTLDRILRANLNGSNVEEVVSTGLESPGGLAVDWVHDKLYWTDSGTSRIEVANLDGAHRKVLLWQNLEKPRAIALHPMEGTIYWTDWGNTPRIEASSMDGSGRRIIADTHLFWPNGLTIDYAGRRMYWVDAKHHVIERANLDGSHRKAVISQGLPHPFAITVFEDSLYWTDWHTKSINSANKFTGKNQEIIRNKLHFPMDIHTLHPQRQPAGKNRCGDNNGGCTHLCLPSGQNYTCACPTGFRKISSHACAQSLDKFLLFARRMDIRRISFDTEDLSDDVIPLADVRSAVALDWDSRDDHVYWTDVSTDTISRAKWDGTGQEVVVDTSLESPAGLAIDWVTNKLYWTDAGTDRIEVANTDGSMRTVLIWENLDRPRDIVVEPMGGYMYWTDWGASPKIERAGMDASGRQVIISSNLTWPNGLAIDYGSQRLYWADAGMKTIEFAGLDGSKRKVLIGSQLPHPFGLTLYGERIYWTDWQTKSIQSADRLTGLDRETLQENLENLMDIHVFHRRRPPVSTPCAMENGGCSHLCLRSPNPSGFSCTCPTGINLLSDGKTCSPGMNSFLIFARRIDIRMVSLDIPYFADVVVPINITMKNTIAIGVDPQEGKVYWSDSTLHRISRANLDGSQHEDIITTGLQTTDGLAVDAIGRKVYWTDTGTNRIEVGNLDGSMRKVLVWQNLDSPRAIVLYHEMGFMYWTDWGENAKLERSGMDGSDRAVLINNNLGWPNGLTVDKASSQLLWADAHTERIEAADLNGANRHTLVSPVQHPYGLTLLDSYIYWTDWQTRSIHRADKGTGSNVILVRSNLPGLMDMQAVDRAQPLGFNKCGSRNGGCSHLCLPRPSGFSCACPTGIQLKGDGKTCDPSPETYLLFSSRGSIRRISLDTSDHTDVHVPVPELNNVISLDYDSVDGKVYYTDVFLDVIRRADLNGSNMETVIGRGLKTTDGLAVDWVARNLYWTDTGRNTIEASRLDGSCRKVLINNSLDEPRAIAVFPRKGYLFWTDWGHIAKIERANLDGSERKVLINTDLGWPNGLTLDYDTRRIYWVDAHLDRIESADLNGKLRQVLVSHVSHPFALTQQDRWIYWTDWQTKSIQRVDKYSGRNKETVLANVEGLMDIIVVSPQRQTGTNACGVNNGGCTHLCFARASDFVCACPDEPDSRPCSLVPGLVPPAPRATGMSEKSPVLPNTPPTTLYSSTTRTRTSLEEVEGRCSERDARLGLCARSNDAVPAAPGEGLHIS

| Substance | Kd |
| --- | --- |
| purified soluble Scl_(K75E) (natural protein) | 35.9 µM |
| purified soluble Scl_(K75Q) (natural protein) | 20.2 µM |
| purified soluble Scl_(V136D) (natural protein) | 7.52 µM |

— publication PMC11808424
